Assay results reported in US7799901B2, “Modulators of the function of FAS receptors and other proteins” (Yeda Research and Development Co. Ltd., priority 1995, dated 2010).

T1: MORT-1 (Homo sapiens, UniProt Q13158, G32V)
T1 sequence (Q13158 with tags, fused parts or gaps G32V): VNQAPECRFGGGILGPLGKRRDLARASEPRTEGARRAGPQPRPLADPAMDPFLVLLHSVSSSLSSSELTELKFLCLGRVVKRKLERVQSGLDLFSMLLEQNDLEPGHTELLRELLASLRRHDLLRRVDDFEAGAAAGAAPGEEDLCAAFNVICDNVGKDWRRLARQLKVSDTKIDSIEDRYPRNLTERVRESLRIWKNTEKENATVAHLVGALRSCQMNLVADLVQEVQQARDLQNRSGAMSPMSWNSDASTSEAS


Experiments:
[1] = target: T1, MORT-1; test: Two-hybrid β-galactosidase filter assay (FIG. 5), binding to MORT-1; parameters: the full-length MORT-1 cDNA was used (MORT 1); expressed in transfected cells; host or cells: SFY526 yeast; conditions: two hybrid test
Description: The yeast two-hybrid test was further applied to evaluate the specificity of binding of MACH to MORT-1, in particular, to define the region in MORT-1 to which MACH binds, as well as to determine which of the MACH ORFs interacts with MORT-1, the procedures being as set forth herein above in Examples 1 and 2. Briefly, various MORT-1 and MACH constructs were prepared for testing the interaction of the proteins encoded by the Gal4 DNA-binding domain and activation domain constructs within transfected SFY526 yeast cells as assessed by the β-galactosidase expression filter assay. The DNA-binding domain constructs were prepared in pGBT9 vectors and the activation domain constructs were prepared in pGAD-GM vectors. For the activation domain constructs, the full-length MACH cDNA was used (MACH), as was a construct encoding only the ORF-B (MACH B) region. Control activation domain constructs were those containing the full-length MORT-1 coding sequence (MORT 1, positive control) and those having no inserts, i.e., “empty” vectors (pGAD-GM). For the DNA-binding domain constructs, the full-length MORT-1 cDNA was used (MORT 1), as were constructs encoding only the MORT-1 […] (MORT-1DD aa 130-245). […] In the assay, the development of color was determined, where the greater the color development, the greater the interaction between the constructs encoded by the DNA-binding domain and activation domain; Color development was depicted by symbols, where “+++” and “+” indicate the development of a strong color within 30 and 90 min. of the assay, respectively, and “−−−” indicates the lack of development of color within 24 hrs. of the assay. […]
In FIG. 5, there is shown the results of the interaction of MORT-1 and MACH within transfected yeast cells. […] Their interaction was assessed by a β-galactosidase expression filter assay as described in Boldin et al (1995b). […]

[2] = test system: human embryonic kidney 293-EBNA cells; test: Cell death on overexpression of MACH isoforms in 293-EBNA cells; type: cell-based; conditions: β-galactosidase-expressing cells with apoptopic morphology, 20 h after transfection
Description: To explore the involvement of MACH in cell-death induction, the effect of overexpression of various MACH isoforms on cell viability was examined. The test was performed by transfecting MACH expression vectors together with a β-galactosidase expression vector as a transfection marker into human embryonic kidney 293-EBNA cells and breast carcinoma MCF7 cells.
In brief, 293-EBNA cells, MCF7 human breast carcinoma cells and HeLa HtTA-1 cells were grown in Dulbecco's modified Eagle's minimal essential medium supplemented with 10% fetal calf serum, nonessential amino acids, 100 U/ml penicillin and 100 μg/ml streptomycin. Cell tissue culture dishes (5×10^5 293-EBNA cells, 3×10^5 s MCF7 cells or 3×10^5 HeLa cells in 6-cm dishes) were transiently transfected, using the calcium phosphate precipitation method, with the cDNAs of the indicated proteins together with the β-galactosidase expression vector. In the experiments presented in FIGS. 14A-D and 15, each dish was transfected with 3.5 μg of the indicated MACH construct and 1.5 μg of pSV-β-gal. In the experiments presented in FIGS. 16A-D and 17-19, each dish was transfected with 2.5 μg of the indicated MACH or MORT1 construct (or, as control, empty vector) and 1.5 μg of pSV-β-gal. The cells were rinsed 6 to 10 h after transfection. The 293-EBNA and MCF7 cells were incubated for a further 18 h without additional treatment. The HeLa cells were incubated for 26 h after transfection and-then for 5 h in the presence of either anti-Fas.APO1 antibody (CH11, 0.5 μg/ml) or TNF (100 ng/ml), together with cycloheximide (10 μg/ml). The extent of cell death at the end of the incubation periods was assessed by determination of β-galactosidase expression, as described by Kumar et al, 1994.
In particular, FIGS. 14A-D show the morphology of human embryonic kidney 293-EBNA cells transiently expressing the indicated MACH isoforms. The arrows (FIG. 14B) point to apoptopic cells. Photographs were taken 26 h after transfection. […] Data are from three independent experiments with the 293-EBNA cells and two independent experiments with the MCF7 cells.

Molecule	binding to MORT-1 in transfected yeast [1]	cell death of transfected 293-EBNA cells [2]
MACHα1: MACH isoform, cDNA SEQ ID NO: 14, amino acid SEQ ID NO: 7; contains CED3/ICE homology region	scored clearly positive	massive cell death
MACHβ1: MACH isoform, cDNA SEQ ID NO: 4, amino acid SEQ ID NO: 5; lacks the CED3/ICE homology region (protein) MDFSRNLYDIGEQLDSEDLASLKFLSLDYIPQRKQEPIKDALMLFQRLQEKRMLEESNLSFLKELLFRINRLDLLITYLNTRKEEMERELQTPGRAQISAYRVMLYQISEEVSRSELRSFKFLLQEEISKCKLDDDMNLLDIFIEMEKRVILGEGKLDILKRVCAQINKSLLKIINDYEEFSKERSSSLEGSPDEFSNDFGQSLPNEKQTSGILSDHQQSQFCKSTGESAQTSQH	binds	some slight cell death
MACHα1 (C360S): MACHα1 mutant in which the catalytic cysteine Cys360 is replaced by Ser (protein) MDFSRNLYDIGEQLDSEDLASLKFLSLDYIPQRKQEPIKDALMLFQRLQEKRMLEESNLSFLKELLFRINRLDLLITYLNTRKEEMERELQTPGRAQISAYRVMLYQISEEVSRSELRSFKFLLQEEISKCKLDDDMNLLDIFIEMEKRVILGEGKLDILKRVCAQINKSLLKIINDYEEFSKERSSSLEGSPDEFSNGEELCGVMTISDSPREQDSESQTLDKVYQMKSKPRGYCLIINNHNFAKAREKVPKLHSIRDRNGTHLDAGALTTTFEELHFEIKPHDDCTVEQIYEILKIYQLMDHSNMDCFICCILSHGDKGIIYGTDGQEAPIYELTSQFTGLKCPSLAGKPKVFFIQASQGDNYQKGIPVETDSEEQPYLEMDLSSPQTRYIPDEADFLLGMATVNNCVSYRNPAEGTWYIQSLCQSLRERCPRGDDILTILTEVNYEVSNKDDKKNMGKQMPQPTFTLRKKLVFPSD	bound	No death
